Test results taken from patent US20090142346A1 (Takeda / Millennium, published 2009).
Substitutions are numbered along the chain they refer to.

Assays:
[1] = molecular target: T1, nectin-2 Ig2 domain-deficient protein (human, UniProt Q92692 32-538); assay: FCM
T1 construct: also called delta-Ig2; Nectin-2ΔIg2
T1 sequence: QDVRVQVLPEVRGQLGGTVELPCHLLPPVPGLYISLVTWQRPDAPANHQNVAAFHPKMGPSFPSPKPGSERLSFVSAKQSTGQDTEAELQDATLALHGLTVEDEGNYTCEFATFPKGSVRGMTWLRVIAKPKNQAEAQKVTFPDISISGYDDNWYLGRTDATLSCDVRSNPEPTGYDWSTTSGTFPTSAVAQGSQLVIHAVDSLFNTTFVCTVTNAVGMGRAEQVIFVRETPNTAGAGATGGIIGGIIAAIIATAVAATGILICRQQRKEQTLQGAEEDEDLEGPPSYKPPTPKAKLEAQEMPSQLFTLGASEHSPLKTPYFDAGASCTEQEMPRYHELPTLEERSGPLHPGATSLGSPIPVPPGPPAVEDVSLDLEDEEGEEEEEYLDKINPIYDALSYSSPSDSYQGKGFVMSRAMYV
Description: After 200 μL of FCM buffer was added to each well and washed once by centrifugal operation, 50 μL each of Alexa488-labeled secondary antibody diluted in FCM buffer to 10 μg/mL was added to and mixed therewith, and the mixture was then reacted on ice for an hour. The Alexa488-labeled secondary antibody used was Alexa Fluor488 goat anti-human IgG (H+L) for the human antibodies and Alexa Fluor488 goat anti-rabbit IgG (H+L) (Invitrogen) for the rabbit antibody. The cells in each well were washed twice with FCM buffer and then resuspended in 250 μL of FCM buffer. Using the flow cytometer MPL500 (BECKMAN COULTER), the fluorescence intensity of stained cells was measured to determine the ratio of the median value of fluorescence intensities of the respective antibodies in the primary antibody group to the median value of fluorescence intensities in the negative control group.

human nectin-2δ protein = molecular target: T2, human nectin-2δ protein (human, UniProt Q92692 32-538); assay: FCM, CHO-K1 transient
T2 construct: full length, stably on CHO-K1 (43-2) or transiently on CHO-K1 from pEE12.4-Nectin-2δ
T2 sequence: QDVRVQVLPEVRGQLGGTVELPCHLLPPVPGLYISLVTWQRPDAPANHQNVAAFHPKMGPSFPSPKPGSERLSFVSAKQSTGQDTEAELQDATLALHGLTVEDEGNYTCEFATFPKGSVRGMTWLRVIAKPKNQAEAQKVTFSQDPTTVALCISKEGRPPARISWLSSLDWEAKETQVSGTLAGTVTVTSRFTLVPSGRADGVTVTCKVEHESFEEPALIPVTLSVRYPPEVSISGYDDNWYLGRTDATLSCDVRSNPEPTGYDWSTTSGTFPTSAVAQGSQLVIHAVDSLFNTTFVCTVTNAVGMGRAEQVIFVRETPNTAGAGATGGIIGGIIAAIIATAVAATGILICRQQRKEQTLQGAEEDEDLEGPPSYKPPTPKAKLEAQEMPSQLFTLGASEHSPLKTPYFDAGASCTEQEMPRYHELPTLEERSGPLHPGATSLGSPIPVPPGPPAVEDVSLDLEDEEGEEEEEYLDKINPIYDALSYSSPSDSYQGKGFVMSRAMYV
Description: (§1) A ratio of the median value of fluorescence intensities of negative control plasmid pcDNA3.1(+)-transfected CHO-K1 cells to the median value of fluorescence intensities of each gene-transfected CHO-K1 cells was calculated for each antibody.
(§2) Then, after 200 μL of FCM buffer was added to each well and washed once by centrifugal operation, 50 μL each of Alexa488-labeled secondary antibody diluted in FCM buffer to 10 μg/mL was added thereto for suspension, and the mixture was then reacted on ice for an hour. As secondary antibodies, Alexa Fluor488 goat anti-human IgG (H+L) was used for the human antibodies and Alexa Fluor488 goat anti-rabbit IgG (H+L) (Invitrogen) was used for the rabbit antibody, respectively. Next, the cells were washed twice with FCM buffer and then resuspended in 250 μL of FCM buffer.

[2] = molecular target: T3, cynomolgus monkey nectin-2 protein (cynomolgus monkey, UniProt Q92692 32-538 (human entry)); assay: FCM, CHO-K1 transient
T3 construct: transient on CHO-K1; also called maNectin-2
T3 chain: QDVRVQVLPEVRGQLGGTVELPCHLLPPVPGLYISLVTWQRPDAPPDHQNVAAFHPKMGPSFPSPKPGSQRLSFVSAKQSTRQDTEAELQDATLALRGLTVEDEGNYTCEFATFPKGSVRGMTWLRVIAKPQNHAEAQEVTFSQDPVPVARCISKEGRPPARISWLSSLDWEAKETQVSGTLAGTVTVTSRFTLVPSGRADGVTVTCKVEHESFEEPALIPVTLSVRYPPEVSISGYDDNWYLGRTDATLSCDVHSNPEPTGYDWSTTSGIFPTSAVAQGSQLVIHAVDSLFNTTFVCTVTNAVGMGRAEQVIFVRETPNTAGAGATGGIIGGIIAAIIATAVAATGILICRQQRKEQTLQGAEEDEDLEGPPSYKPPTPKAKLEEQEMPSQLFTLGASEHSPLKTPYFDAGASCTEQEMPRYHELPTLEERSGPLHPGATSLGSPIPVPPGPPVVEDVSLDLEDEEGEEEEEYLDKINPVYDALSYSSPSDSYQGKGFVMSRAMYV
Description: as §1, §2

[3] = molecular target: T4, human nectin-2δ AN77-78PD (human, UniProt Q92692 32-538); assay: FCM, CHO-K1 transient
T4 construct: transient on CHO-K1
T4 sequence: T2 sequence with A46P, N47D
Description: (§3) After these cells were further washed twice with FCM buffer and then resuspended in 250 μL of FCM buffer, fluorescence intensity of the stained cells was measured by the flow cytometer MPL500 (BECKMAN COULTER). A ratio of the median value of fluorescence intensities of negative control plasmid pcDNA3.1(+)-transfected CHO-K1 cells to the median value of fluorescence intensities of each gene-transfected CHO-K1 cells was calculated for each antibody.
(§4) Then, after 200 μL of FCM buffer was added to each well and washed once by centrifugal operation, 50 μL of Alexa Fluor488 goat anti-human IgG (H+L) diluted in FCM buffer to 10 μg/mL was added thereto for suspension, and the mixture was then reacted on ice for an hour. Next, the cells were washed twice with FCM buffer and resuspended in 250 μL of FCM buffer.

human nectin-2δ G113R = molecular target: T5, human nectin-2δ G113R (human, UniProt Q92692 32-538); assay: FCM, CHO-K1 transient
T5 construct: transient on CHO-K1
T5 sequence: T2 sequence with G82R
Description: as §3, §4

human nectin-2δ H128R = molecular target: T6, human nectin-2δ H128R (human, UniProt Q92692 32-538); assay: FCM, CHO-K1 transient
T6 construct: transient on CHO-K1
T6 sequence: T2 sequence with H97R
Description: as §3, §4

B1: Nec1-554-1 (antibody, human IgG1, V domains shown)
VH: EVQLVESGGGLVKPGGSLRLSCAASGFTFSSYNMNWVRQAPGKGLEWVSSISSSSSYIYYADSVKGRFTISRDNAKNSLYLQMNSLRAEDTAVYYCARDYYGSGTYYLFDYWGQGTLVTVSS
VL: EIVLTQSPDFQSVTPKEKVTITCRASQSIGSSLHWYQQKPDQSPKLLIKYASQSFSGVPSRFSGSGSGTDFTLTINSLEAEDAAAYYCHQSRSLPITFGQGTRLEIK
notes: human IgG1/k; also called Nec1-554-1 SP3
In the case of B1, the binding result [1] is reported as “no binding (tested: ratio below 2 = no reactivity)”, the median fluorescence ratio (human nectin-2δ protein) is reported as 43 ratio and the median fluorescence ratio [2] is reported as 14.8 ratio. It also gave a median fluorescence ratio [3] of 44.2 ratio, a median fluorescence ratio (human nectin-2δ G113R) of 38.7 ratio and a median fluorescence ratio (human nectin-2δ H128R) of 51.5 ratio.
